Laboratory results: patent US20020151477, “Nuclear receptor coactivator” (published 2002)

Tests used:
[1] = target: T1, TRβ/RXRα heterodimer (Homo sapiens (TRβ) / Rattus norvegicus …, UniProt P10828;Q05343 P10828:1-461,Q05343:1-467); test: EMSA; oligomeric complex with GST-RAP250; conditions: tags: pCMVhTRβ and pBKCMVrRXRα, rabbit reticulocyte lysate TNT; label: 32P (dCTP)
T1 sequence 1: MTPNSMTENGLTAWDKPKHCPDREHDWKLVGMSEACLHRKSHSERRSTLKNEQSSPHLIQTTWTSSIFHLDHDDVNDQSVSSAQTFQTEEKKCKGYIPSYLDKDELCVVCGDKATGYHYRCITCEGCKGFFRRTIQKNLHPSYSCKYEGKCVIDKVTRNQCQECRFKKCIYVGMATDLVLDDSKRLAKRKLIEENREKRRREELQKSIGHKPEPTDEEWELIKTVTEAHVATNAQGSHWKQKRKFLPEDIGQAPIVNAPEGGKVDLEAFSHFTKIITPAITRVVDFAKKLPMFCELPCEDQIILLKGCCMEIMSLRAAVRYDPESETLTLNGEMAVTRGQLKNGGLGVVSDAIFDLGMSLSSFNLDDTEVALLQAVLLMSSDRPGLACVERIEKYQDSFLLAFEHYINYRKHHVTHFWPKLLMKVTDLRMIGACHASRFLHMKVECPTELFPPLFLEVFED
T1 sequence 2: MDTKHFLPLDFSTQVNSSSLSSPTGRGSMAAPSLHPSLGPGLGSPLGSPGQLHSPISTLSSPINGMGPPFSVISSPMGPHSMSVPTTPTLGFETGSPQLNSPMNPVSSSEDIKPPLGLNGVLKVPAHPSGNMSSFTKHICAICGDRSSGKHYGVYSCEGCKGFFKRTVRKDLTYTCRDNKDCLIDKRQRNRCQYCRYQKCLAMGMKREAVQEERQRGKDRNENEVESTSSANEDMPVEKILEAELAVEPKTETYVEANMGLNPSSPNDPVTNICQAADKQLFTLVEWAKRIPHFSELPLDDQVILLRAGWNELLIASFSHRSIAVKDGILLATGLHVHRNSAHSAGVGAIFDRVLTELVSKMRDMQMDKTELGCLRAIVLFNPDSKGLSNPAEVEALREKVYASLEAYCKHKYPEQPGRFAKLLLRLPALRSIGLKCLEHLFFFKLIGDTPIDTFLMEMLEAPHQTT

[2] = target: T2, TRα/RXRα + GST-RAP250 (818-931) complex (Homo sapiens (TRα) / Rattus norvegicus …, UniProt P10827-2;Q05343;Q9JL19 P10827-2:1-410,Q05343:1-467,Q9JL19:818-931); test: EMSA; weak supershift without ligand, pronounced with T3 and/or 9-cis RA; conditions: tags: GST-RAP250 purified from E. coli; label: 32P (dCTP)
T2 chain 1: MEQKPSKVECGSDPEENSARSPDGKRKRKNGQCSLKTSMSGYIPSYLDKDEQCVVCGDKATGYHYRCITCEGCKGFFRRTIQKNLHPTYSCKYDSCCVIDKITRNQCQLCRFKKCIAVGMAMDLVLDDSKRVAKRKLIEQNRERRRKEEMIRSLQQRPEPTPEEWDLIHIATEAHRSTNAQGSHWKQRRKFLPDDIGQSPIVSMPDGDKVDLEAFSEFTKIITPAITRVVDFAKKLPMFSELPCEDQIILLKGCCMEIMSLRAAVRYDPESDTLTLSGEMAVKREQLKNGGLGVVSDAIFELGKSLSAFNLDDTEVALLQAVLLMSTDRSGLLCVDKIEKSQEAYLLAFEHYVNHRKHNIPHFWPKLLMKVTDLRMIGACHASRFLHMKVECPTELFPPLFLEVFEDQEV
T2 chain 2: T1 sequence 2
T2 chain 3: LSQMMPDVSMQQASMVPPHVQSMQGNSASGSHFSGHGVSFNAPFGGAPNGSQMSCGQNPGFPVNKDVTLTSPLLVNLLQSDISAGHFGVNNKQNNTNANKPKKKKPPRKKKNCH

[3] = target: T3, TRα/RXRα heterodimer (Homo sapiens (TRα) / Rattus norvegicus …, UniProt P10827-2;Q05343 P10827-2:1-410,Q05343:1-467); test: EMSA; with and without T3 / 9-cis RA; GST alone does not interact with the complex; on ice; conditions: tags: pCMVhTRα and pBKCMVrRXRα, rabbit reticulocyte lysate TNT; label: 32P (dCTP)
T3 sequence 1: T2 chain 1
T3 sequence 2: T1 sequence 2

Measured: binding result

B1: DR4-TRE (dsDNA)
DNA 1: TCGATCAGGTCATTTCAGGTCAGAG
DNA 2: CTCTGACCTGAAATGACCTGATCGA
binds: all assays above
